The data set concerns HER2 epitope peptide. Conditions: 5'-H2N-(CH2)6; doxorubicin intercalated, Dox:aptamer 10:1; apparent Kd from doxorubicin fluorescence release upon epitope binding; Dox molar ratio 10.

Regarding “AACCGCCCAAATCCCTAAGAGTCTGCACTTGTCATTTTGTATATGTATTTGGTTTTTGGCTCTCACAGACACACTACACACGCACA [Dox-loaded anti-HER2 aptamer]”, the Kd stood at 50 nM.
